Results taken from article PMC5890618, “Structural and Functional Insights into Bacillus subtilis Sigma Factor Inhibitor, CsfB” (Structure(London, England:1993), 2018).

B1: CsfB^1-48 (truncated wild-type CsfB, stable degradation product, residues 1-48) (domain or fragment, Bacillus subtilis, UniProt P37534 1-48, looked up)
chain: MDETVKLNHTCVICDQEKNRGIHLYTKFICLDCERKVISTSTSDPDYA
notes: Produced as N-terminally histidine-tagged full-length CsfB that degraded to 1-48; Symmetrical homodimer by NMR; also called cleaved CsfB; truncated variant; source: E. coli BL21(DE3)pLysS, purified (HisTrap Ni Sepharose, Superdex75 SEC); arises by degradation of recombinant full-length CsfB
B2: CsfB^A48E (full-length CsfB variant A48E, residues 1-64) (natural protein, Bacillus subtilis, UniProt P37534 1-64, looked up)
chain: MDETVKLNHTCVICDQEKNRGIHLYTKFICLDCERKVISTSTSDPDYEFYVKKLKSIHTPPLYS
notes: Anti-sigma factor CsfB (also called Gin), Bacillus subtilis strain PY79, full length, residues 1-64, with A48E at the known cleavage point; Made by site-directed mutagenesis of pNIC28-CsfB; The His-tag was removed with TEV 'when required'; 15N-labelled for the NMR titrations; also called Gin A48E; source: E. coli BL21(DE3)pLysS, purified (HisTrap Ni Sepharose, Superdex75 SEC)
B3: σ^E (truncated sigma factor E, residues 17-239, lacking the N-terminal membrane-anchored pro-sequence) (domain or fragment, Bacillus subtilis, UniProt P06222 17-239, looked up)
chain: MKLGLKSDEVYYIGGSEALPPPLSKDEEQVLLMKLPNGDQAARAILIERNLRLVVYIARKFENTGINIEDLISIGTIGLIKAVNTFNPEKKIKLATYASRCIENEILMYLRRNNKIRSEVSFDEPLNIDWDGNELLLSDVLGTDDDIITKDIEANVDKKLLKKALEQLNEREKQIMELRFGLVGEEEKTQKDVADMMGISQSYISRLEKRIIKRLRKEFNKMV
notes: Cloned into pET28-TxrA; The tag was removed with TEV 'when required'; also called sigma E; SigE; source: E. coli BL21(DE3)pLysS, purified (HisTrap Ni Sepharose, Superdex75 SEC)

What was measured:
[1] = molecular target: the molecule itself; experiment: NMR solution structure; CsfB 1-48 dimer, >500 uM, 303 K, 50 mM HEPES pH 7.5, 150 mM KCl, 0.5 mM TCEP; intermolecular NOEs from 12C-filtered, 13C-edited NOESY on a mixed labelled/unlabelled dimer; ARIA2.3 with C2 symmetry
[2] = molecular target: B3; experiment: ITC; cell 60 uM CsfB^A48E, syringe 395 uM σ^E; 25°C; 19 injections of 2 ul; 50 mM HEPES pH 7.5, 150 mM KCl, 0.5 mM TCEP; fitted assuming 1:1 stoichiometry; settings: both partners purified
[3] = molecular target: T1, σ^G (recombinant full-length sigma factor G, residues 1-260) (Bacillus subtilis, UniProt P19940 1-260); experiment: NMR titration; 15N-labelled CsfB (100 uM for CsfB^A48E) titrated with unlabelled sigma factor up to 1:2 molar equivalents; 1H-15N SOFAST-HMQC; 298 K; 50 mM HEPES pH 7.5, 150 mM KCl, 0.5 mM TCEP; settings: both partners purified
T1 construct: Cloned into pET-46; also called sigma G; SigG; source: E. coli BL21(DE3)pLysS, purified (HisTrap Ni Sepharose, Superdex75 SEC)
T1 sequence (looked up): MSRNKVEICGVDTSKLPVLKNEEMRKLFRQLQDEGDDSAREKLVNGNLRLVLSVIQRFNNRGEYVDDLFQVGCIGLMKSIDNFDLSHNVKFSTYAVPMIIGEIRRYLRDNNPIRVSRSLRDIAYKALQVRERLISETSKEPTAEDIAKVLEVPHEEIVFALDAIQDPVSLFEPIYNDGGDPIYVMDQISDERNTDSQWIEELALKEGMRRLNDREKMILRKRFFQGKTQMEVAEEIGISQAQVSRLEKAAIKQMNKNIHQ

[4] = molecular target: B2; experiment: ITC; cell 60 uM CsfB^A48E, syringe 395 uM σ^E; 25°C; 19 injections of 2 ul; 50 mM HEPES pH 7.5, 150 mM KCl, 0.5 mM TCEP; fitted assuming 1:1 stoichiometry; settings: both partners purified

## B1
[1]
  stoichiometry N: 2

## B2
[2]
  Kd: 12.5 ± 2.4 nM
[3]
  binding result: binds

## B3
[4]
  dH: -8.04 ± 0.04 kcal/mol
  stoichiometry N: 1.01 sites
